In the data set the target is T1, EhDbr1 (RNA lariat debranching enzyme) (Entamoeba histolytica, UniProt C4M1P9 1-354).
T1 sequence: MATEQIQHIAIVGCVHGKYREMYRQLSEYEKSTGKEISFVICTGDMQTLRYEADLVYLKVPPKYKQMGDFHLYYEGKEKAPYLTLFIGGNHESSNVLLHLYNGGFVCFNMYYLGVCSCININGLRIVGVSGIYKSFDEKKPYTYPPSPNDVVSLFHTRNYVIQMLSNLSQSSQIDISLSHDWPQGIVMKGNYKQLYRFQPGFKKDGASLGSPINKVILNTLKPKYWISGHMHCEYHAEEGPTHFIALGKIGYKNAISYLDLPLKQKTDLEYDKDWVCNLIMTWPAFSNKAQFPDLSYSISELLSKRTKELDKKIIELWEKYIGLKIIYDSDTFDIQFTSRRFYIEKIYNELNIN
The data set is described as follows: X-ray crystallography.

B1: PS-bRNA-1 5' product (hydrolyzed 2'-5' fragment, 5'-PS-GUGUG-3') (ssRNA)
RNA: GUGUG
modifications: 5'-terminal phosphorothioate
Consider B1, for which the binding result is recorded as “binds”.

The record behind these values is article PMC10308451.
